Test results: publication PMC4234293, “Galactosyltransferases from Arabidopsis thaliana in the biosynthesis of type II arabinogalactan: molecular interaction enhances enzyme activity” (BMC Plant Biology, 2014)

B1: AtGALT29A (Arabidopsis thaliana beta-galactosyltransferase 1 from family GT29, At1g08280), C-terminal mCer3-HA or YFP-HA fusion (enzyme, UniProt Q9SGD2 1-398, looked up)
chain: MKRSVRPLFSALLFAFFAATLICRVAIRRSSFSFASAIAELGSSGLMTEDIVFNETLLEFAAIDPGEPNFKQEVDLISDYDHTRRSHRRHFSSMSIRPSEQQRRVSRDIASSSKFPVTLRSSQAYRYWSEFKRNLRLWARRRAYEPNIMLDLIRLVKNPIDVHNGVVSISSERYLSCAVVGNSGTLLNSQYGDLIDKHEIVIRLNNAKTERFEKKVGSKTNISFINSNILHQCGRRESCYCHPYGETVPIVMYICQPIHVLDYTLCKPSHRAPLLITDPRFDVMCARIVKYYSVKKFLEEKKAKGFVDWSKDHEGSLFHYSSGMQAVMLAVGICEKVSVFGFGKLNSTKHHYHTNQKAELKLHDYEAEYRLYRDLENSPRAIPFLPKEFKIPLVQVYH
notes: AtGALT29A, Arabidopsis thaliana, locus At1g08280; full-length cDNA without stop codon; Two copies that differ only in the tag were used in the FRET experiments: mCer3-HA (donor) and YFP-HA (acceptor); They are kept as one molecule so that the homodimer row has the protein with itself; The label in each row tells which copy was meant; also called AtGALT29A-mCer3; AtGALT29A-YFP; source: N. …
B2: AtGALT31A (Arabidopsis thaliana beta-galactosyltransferase 1 from family GT31, At1g32930), C-terminal mCer3-HA or YFP-HA fusion (enzyme, UniProt Q9MAP8 1-399, looked up)
chain: MGMGRYQKSATSGVSARWVFVLCISSFLLGVLVVNRLLASFETVDGIERASPEQNDQSRSLNPLVDCESKEGDILSRVSHTHDVIKTLDKTISSLEVELATARAARSDGRDGSPAVAKTVADQSKIRPRMFFVMGIMTAFSSRKRRDSIRGTWLPKGDELKRLETEKGIIMRFVIGHSSSPGGVLDHTIEAEEEQHKDFFRLNHIEGYHELSSKTQIYFSSAVAKWDADFYIKVDDDVHVNLGMLGSTLARHRSKPRVYIGCMKSGPVLAQKGVKYHEPEYWKFGEEGNKYFRHATGQIYAISKDLATYISVNRQLLHKYANEDVSLGSWFIGLDVEHIDDRSLCCGTPLDCEWKGQAGNPCAASFDWSCSGICKSVDRMLEVHQRCGEGDGAIWHSSF
notes: AtGALT31A, Arabidopsis thaliana, locus At1g32930; full-length cDNA without stop codon; Two copies that differ only in the tag were used in the FRET experiments: mCer3-HA (donor) and YFP-HA (acceptor); They are kept as one molecule so that the homodimer row has the protein with itself; also called AtGALT31A-mCer3; AtGALT31A-YFP; source: N. benthamiana leaves, Agrobacterium-infiltrated, transient …

Key:
Assay in all cases: FRET or BRET; acceptor photobleaching FRET, mCer3 donor and YFP acceptor, co-expressed in N. benthamiana leaf epidermal cells; Golgi ROIs, pixel-by-pixel FRET efficiency
[1] = molecular target: B2; conditions: partners not purified
[2] = molecular target: the molecule itself
[3] = molecular target: B1; conditions: partners not purified

Binder	FRET efficiency [1] [%]	FRET efficiency [2] [%]	FRET efficiency [3] [%]
B1	18	34	
B2		19	29
